Reference: US20090318350A1, “PAN-HER ANTAGONISTS AND METHODS OF USE” (priority 2006, published 2009)
Read-outs that look alike come from different tables or passages of the source.

Legend:
HER5 cells = conditions: cited from earlier work; for stimulation of cell proliferation in EGFR-dependent HER5 cells: isolated ligand variants, previously demonstrated
MCF-7 cells = conditions: cited from earlier work
EGFR = target: T1, EGFR (Homo sapiens, UniProt P00533); experiment: Phage ELISA whole-cell binding, A431 cells; conditions: for Calculated binding (EC50) in A431 cells / binding properties relative to WVS and WVS-R41DL47G: phage fusion; for binding properties relative to WVS and WVS-R41DL47G / ligand binding, from the binding curves: A431 cells; for Calculated binding (EC50): A431 whole cell suspension, Abs450, Table 10; for Calculated binding (EC50) / ligand binding, from the binding curves: phage-displayed ligand
T1 construct: host or cells: A431 human epidermoid carcinoma cells, whole-cell suspension
Experimental: A431 cells for EGFR binding or T47D cells for HER3 binding were grown as monolayers in tissue culture flasks in media containing fetal bovine serum. Cells were trypsinized, neutralized with growth medium, washed twice with DPBS and resuspended in ice-cold PBS-Glu-T. 105 cells were transferred to 96 well plates and incubated on ice for 1 hour in the presence of varied concentrations of phage. Cells were centrifuged and washed 5× with PBS-T then incubated for one hour at room temperature with anti-M13 pVIII coat protein antibody conjugated with horseradish peroxidase (HRP). Cells again centrifuged and washed 5× with PGS-T. Color developed with TMP followed by H2SO4. Cells pelleted and supernatant transferred to optically transparent plate for measurement of absorbance at 450 nm. […]
The human epidermoid carcinoma line, A431, were obtained from ATCC. Stock cultures of A-431 were propagated in DMEM medium containing 10% fetal bovine serum. A431 cells were used to evaluate EGFR receptor binding.
(§1) The phage fusion ligand variants were then evaluated for binding using the assay described herein in both A431 cells (to investigate EGFR binding) and T47D cells (to investigate HER3 receptor binding) and EC50s were calculated.

HER3 receptor = experiment: Phage ELISA whole-cell binding, T47D cells; parameters: species or system human; conditions: A431 (EGFR) versus T47D (HER3) binding, phage fusion
Experimental: (§2) A431 cells for EGFR binding or T47D cells for HER3 binding were grown as monolayers in tissue culture flasks in media containing fetal bovine serum. Cells were trypsinized, neutralized with growth medium, washed twice with DPBS and resuspended in ice-cold PBS-Glu-T. 105 cells were transferred to 96 well plates and incubated on ice for 1 hour in the presence of varied concentrations of phage. Cells were centrifuged and washed 5× with PBS-T then incubated for one hour at room temperature with anti-M13 pVIII coat protein antibody conjugated with horseradish peroxidase (HRP). Cells again centrifuged and washed 5× with PGS-T. Color developed with TMP followed by H2SO4. Cells pelleted and supernatant transferred to optically transparent plate for measurement of absorbance at 450 nm.
(§3) Theoretical estimates were also performed. “N.D.” indicates not determined. […]
Human ductal carcinoma cells were obtained from ATCC. They were maintained in RPMI 1640 medium with 2 mM L-glutamine adjusted to contain 1.5 g/L sodium bicarbonate, 4.5 g/L glucose, 10 mM HEPES, and 1.0 mM sodium pyruvate and supplemented with 0.2 Units/ml bovine insulin, 90%; fetal bovine serum, 10%. […]
as §1

Her-3 [1] = target: T2, Her-3 (Homo sapiens, UniProt P21860); experiment: Phage ELISA whole-cell binding, T47D cells; parameters: host or cells: T47D human ductal carcinoma cells, whole-cell suspension; conditions: for Calculated binding (EC50) in T47D cells / binding properties relative to WVS and WVS-R41DL47G: phage fusion
Experimental: as §2, §3
Human ductal carcinoma cells were obtained from ATCC. They were maintained in RPMI 1640 medium with 2 mM L-glutamine adjusted to contain 1.5 g/L sodium bicarbonate, 4.5 g/L glucose, 10 mM HEPES, and 1.0 mM sodium pyruvate and supplemented with 0.2 Units/ml bovine insulin, 90%; fetal bovine serum, 10%. T47-D cells were used to evaluate HER3 receptor binding.
as §1

Her-3 [2] = target: T2, Her-3; conditions: particularly for Her-3; cited from earlier work
[3] = isolated ligand variants, previously demonstrated
[4] = T47D whole cell suspension, phage-displayed ligand, Abs450

T2 sequence (P21860 20-1342): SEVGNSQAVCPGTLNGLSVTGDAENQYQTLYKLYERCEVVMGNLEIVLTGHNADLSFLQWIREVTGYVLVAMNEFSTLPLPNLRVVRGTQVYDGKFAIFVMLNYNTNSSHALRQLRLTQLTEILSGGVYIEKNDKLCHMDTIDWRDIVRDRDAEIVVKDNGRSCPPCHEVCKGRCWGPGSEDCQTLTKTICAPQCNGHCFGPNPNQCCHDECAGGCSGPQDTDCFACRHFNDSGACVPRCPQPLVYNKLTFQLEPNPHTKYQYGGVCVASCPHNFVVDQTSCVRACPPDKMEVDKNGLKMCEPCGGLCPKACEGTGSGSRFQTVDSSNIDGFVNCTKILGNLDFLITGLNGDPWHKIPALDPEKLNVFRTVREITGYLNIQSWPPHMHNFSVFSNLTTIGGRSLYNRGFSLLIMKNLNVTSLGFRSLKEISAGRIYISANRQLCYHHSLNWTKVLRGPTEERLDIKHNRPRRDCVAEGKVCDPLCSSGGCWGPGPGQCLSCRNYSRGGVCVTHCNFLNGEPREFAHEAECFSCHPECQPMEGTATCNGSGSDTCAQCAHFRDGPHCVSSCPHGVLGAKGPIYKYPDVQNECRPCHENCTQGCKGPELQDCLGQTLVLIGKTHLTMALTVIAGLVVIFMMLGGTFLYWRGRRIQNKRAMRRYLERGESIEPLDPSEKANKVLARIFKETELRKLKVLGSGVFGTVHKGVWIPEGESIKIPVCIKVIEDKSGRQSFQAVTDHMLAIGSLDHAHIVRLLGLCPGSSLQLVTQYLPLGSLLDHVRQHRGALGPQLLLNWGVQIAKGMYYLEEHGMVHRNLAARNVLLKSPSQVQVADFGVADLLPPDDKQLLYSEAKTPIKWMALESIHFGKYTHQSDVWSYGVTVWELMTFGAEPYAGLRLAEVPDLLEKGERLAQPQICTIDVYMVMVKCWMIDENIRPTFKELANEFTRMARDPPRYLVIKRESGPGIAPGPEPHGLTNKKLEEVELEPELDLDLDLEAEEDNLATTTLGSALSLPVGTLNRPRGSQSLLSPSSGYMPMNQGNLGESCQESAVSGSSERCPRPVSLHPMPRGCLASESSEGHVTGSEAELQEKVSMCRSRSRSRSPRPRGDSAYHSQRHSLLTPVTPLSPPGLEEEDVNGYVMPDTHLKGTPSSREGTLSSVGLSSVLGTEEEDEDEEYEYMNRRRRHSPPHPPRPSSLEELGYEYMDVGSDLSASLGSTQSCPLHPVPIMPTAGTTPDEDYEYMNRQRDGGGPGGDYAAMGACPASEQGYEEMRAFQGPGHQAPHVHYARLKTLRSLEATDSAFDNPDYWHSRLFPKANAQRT

Substance	stimulation of cell proliferation in EGFR-dependent HER5 cells (HER5 cells)	Calculated binding (EC50) in A431 cells (EGFR; Table 14, first half loop)	Calculated binding (EC50) in T47D cells (Her-3 [1]; Table 14, first half loop)	Calculated binding (EC50) in A431 cells (EGFR; Table 15, second half loop)	Calculated binding (EC50) in T47D cells (Her-3 [1]; Table 15, second half loop)	Estimated binding (EC50) (Her-3 [1]; [4])	Calculated binding (EC50) (EGFR)	also measured
BiR: heregulin/EGF chimera, amino terminal residues NSDSE replaced with heregulin SHLVK; SEQ ID NO 2 (SHLVKCPLSHDGYCLHDGVCMYIEALDKYACNCVVGYIGERCQYRDLKWWELR; Ligand Variant)	capable of stimulating cell proliferation	–	–	–	–	–	–	stimulation of HER5 cells (HER5 cells; stated as known): can be stimulated; stimulation of MCF-7 cells (MCF-7 cells; [3]): very weakly; stimulation of MCF-7 cells (MCF-7 cells; stated as known): can be stimulated
D4-2: WVS background, B-loop YRVKTLDKYA (first half YRVKT); SEQ ID 43 (Ligand Variant)	–	3.6 × 10^10 phage titer/mL	8.6 × 10^10 phage titer/mL	–	–	–	–	receptor binding selectivity (HER3 receptor): bind only the HER3 receptor
D4: WVS background, B-loop MYIEAYRVKT (second half YRVKT); SEQ ID 42 (Ligand Variant)	–	–	–	3.9 × 10^9 phage titer/mL	2.9 × 10^10 phage titer/mL	–	–	binding properties relative to WVS and WVS-R41DL47G (EGFR): intermediate binding properties; binding properties relative to WVS and WVS-R41DL47G (Her-3 [1]; T47D cells): intermediate binding properties
E8: WVS background, B-loop MYIEATKYRG (second half TKYRG); SEQ ID 44 (Ligand Variant)	–	–	–	5.2 × 10^9 phage titer/mL	3.1 × 10^10 phage titer/mL	–	–	binding properties relative to WVS and WVS-R41DL47G (EGFR): intermediate binding properties; binding properties relative to WVS and WVS-R41DL47G (Her-3 [1]; T47D cells): intermediate binding properties
T1E: EGF/TGFα chimera, amino terminal residues NSDSE replaced with VVSHFND from TGF-α; SEQ ID NO 4 (VVSHFNDCPLSHDGYCLHDGVCMYIEALDKYACNCVVGYIGERCQYRDLKWWELR; Ligand Variant) [reference compound]	capable of stimulating cell proliferation	–	–	–	–	1 × 10^10 phage titer/mL	–	–
WVS: EGF variant, amino acids 2 and 3 replaced with W and V, N-terminus NWVSE; SEQ ID NO 3 (NWVSECPLSHDGYCLHDGVCMYIEALDKYACNCVVGYIGERCQYRDLKWWELR; Ligand Variant) [reference compound]	capable of stimulating cell proliferation	1.9 × 10^9 phage titer/mL	7.5 × 10^9 phage titer/mL	1.4 × 10^9 phage titer/mL	7.6 × 10^9 phage titer/mL	9 × 10^8 phage titer/mL	6.6 × 10^8 phage titer/mL	binding affinity (Her-3 [2]): high binding affinity; Calculated binding (EC50) (Her-3 [1]; T47D whole cell suspension, phage-displayed ligand, Abs450, Table 9): 9.8 × 10^9 phage titer/mL; stimulation of MCF-7 cells (MCF-7 cells; [3]): stimulated most effectively
wvs-L47G: WVS background, L at position 47 replaced by G; SEQ ID NO 7 (NWVSECPLSHDGYCLHDGVCMYIEALDKYACNCVVGYIGERCQYRDGKWWELR; Ligand Variant)	–	–	–	–	–	–	6.6 × 10^10 phage titer/mL	–
wvs-R41D: WVS background, R at position 41 replaced by D; SEQ ID NO 6 (NWVSECPLSHDGYCLHDGVCMYIEALDKYACNCVVGYIGEDCQYRDLKWWELR; Ligand Variant)	–	–	–	–	–	>1 × 10^12 phage titer/mL	5.8 × 10^11 phage titer/mL	ligand binding, from the binding curves (EGFR): greatly attenuated
wvs-R41DL47G: WVS background, R at position 41 replaced by D, L at position 47 replaced by G; SEQ ID NO 5 (NWVSECPLSHDGYCLHDGVCMYIEALDKYACNCVVGYIGEDCQYRDGKWWELR; Ligand Variant)	–	2.8 × 10^10 phage titer/mL	1.1 × 10^12 phage titer/mL	4.0 × 10^10 phage titer/mL	2.6 × 10^11 phage titer/mL	–	4.8 × 10^12 phage titer/mL	ligand binding, from the binding curves (EGFR): greatly attenuated; ligand binding, from the binding curves (Her-3 [1]; T47D cells, phage-displayed ligand): greatly attenuated
